Test results as given in paper PMC3881179.
Like-named read-outs stand apart in the source and are kept apart here.

Legend:
[1] = biological target: T1, STING C-terminal region (UniProt Q86WV6 181-379); experiment: SPR
[2] = biological target: T1, STING C-terminal region; experiment: pull-down
[3] = biological target: T2, STING C-terminal region (hSTING-C) (human, UniProt Q86WV6 152-379); experiment: fluorescence anisotropy
[4] = biological target: T2, STING C-terminal region (hSTING-C); experiment: fluorescence anisotropy; remark: listed apart in the source

T2 sequence (Q86WV6 152-379): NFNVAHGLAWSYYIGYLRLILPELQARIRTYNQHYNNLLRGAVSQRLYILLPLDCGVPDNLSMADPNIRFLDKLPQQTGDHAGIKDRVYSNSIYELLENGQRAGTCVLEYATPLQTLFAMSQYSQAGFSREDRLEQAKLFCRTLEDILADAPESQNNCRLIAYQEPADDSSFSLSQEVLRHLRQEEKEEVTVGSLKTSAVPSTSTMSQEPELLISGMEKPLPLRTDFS
T1 sequence (Q86WV6 181-379): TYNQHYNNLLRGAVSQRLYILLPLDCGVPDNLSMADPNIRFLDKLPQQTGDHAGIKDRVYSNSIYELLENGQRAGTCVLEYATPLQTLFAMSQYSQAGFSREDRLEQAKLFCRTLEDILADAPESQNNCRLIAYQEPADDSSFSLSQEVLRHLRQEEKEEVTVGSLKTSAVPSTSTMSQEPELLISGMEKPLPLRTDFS

B1: dsDNA90 (dsDNA)
DNA 1: TACAGATCTACTAGTGATCTATGACTGATCTGTACATGATCTACATACAGATCTACTAGTGATCTATGACTGATCTGTACATGATCTACA
DNA 2: TGTAGATCATGTACAGATCAGTCATAGATCACTAGTAGATCTGTATGTAGATCATGTACAGATCAGTCATAGATCACTAGTAGATCTGTA
With B1 the Kd [1] was 13.7 µM.

B2: ssDNA90 (ssDNA)
DNA: TACAGATCTACTAGTGATCTATGACTGATCTGTACATGATCTACATACAGATCTACTAGTGATCTATGACTGATCTGTACATGATCTACA
B2: binds [2].

B3: dsDNA 30-mer (dsDNA)
DNA 1: TACAGATCTACTAGTGATCTATGACTGATC
DNA 2: GATCAGTCATAGATCACTAGTAGATCTGTA
Binder B3 has a Kd [3] of 247 ± 38 µM.

B4: dsDNA 18-mer (dsDNA)
DNA 1: TACAGATCTACTAGTGAT
DNA 2: ATCACTAGTAGATCTGTA
Binder B4 has a Kd [4] of 337 ± 26 µM.
